{"source": "patent US12679878B2", "about": "“CRF2 receptor agonists and their use in therapy” (SANOFI, priority 2020, dated 2026)", "note": "Starred links: 1 amine or outer side, 2 acyl side, 3 side chain; linkers in the order of their positions; H or OH if unused. Non-standard residues stand in square brackets, D forms with d. Groups on a side chain read outwards from the residue. No end group written: not given here. *: point of attachment. C18 diacid = O=C(O)CCCCCCCCCCCCCCCCC(=O)*; γGlu = O=C(O)[C@H](CCC(=O)[*:2])N[*:1]; Palmitoyl = CCCCCCCCCCCCCCCC(=O)*; AEEA = NCCOCCOCC(=O)O; Aib = CC(C)(N)C(=O)O", "data": [{"target": "human corticotropin-releasing factor 2α (CRF2 α receptor) (human), Q13324", "sequence (Q13324 20-411)": "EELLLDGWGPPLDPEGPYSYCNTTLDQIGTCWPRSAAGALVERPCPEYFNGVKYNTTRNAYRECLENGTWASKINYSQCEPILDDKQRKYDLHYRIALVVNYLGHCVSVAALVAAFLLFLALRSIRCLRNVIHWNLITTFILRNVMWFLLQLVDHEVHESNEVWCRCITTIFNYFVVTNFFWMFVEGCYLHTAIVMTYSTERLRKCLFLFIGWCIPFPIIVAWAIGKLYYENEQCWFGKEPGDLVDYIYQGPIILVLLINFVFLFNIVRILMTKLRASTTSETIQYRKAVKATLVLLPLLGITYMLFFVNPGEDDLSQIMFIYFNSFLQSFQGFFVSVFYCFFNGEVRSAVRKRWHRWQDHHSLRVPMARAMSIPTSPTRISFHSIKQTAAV", "assay": "cell-based or functional assay", "units": {"EC50 [nM], 0% HSA": "nM", "EC50 [nM], 0.1% HSA": "nM"}, "values": [{"binder": "IVLSLDVPIKLK([AEEA-AEEA-γGlu-C18 diacid])QILLKQERQK[Aib]QRQKAETNKQILAQV-NH2 (N-terminus assumed; SMILES CC[C@H](C)[C@H](N)C(=O)N[C@H](C(=O)N[C@@H](CC(C)C)C(=O)N[C@@H](CO)C(=O)N[C@@H](CC(C)C)C(=O)N[C@@H](CC(=O)O)C(=O)N[C@H](C(=O)N1CCC[C@H]1C(=O)N[C@H](C(=O)N[C@@H](CCCCN)C(=O)N[C@@H](CC(C)C)C(=O)N[C@@H](CCCCNC(=O)COCCOCCNC(=O)COCCOCCNC(=O)CC[C@H](NC(=O)CCCCCCCCCCCCCCCCC(=O)O)C(=O)O)C(=O)N[C@@H](CCC(N)=O)C(=O)N[C@H](C(=O)N[C@@H](CC(C)C)C(=O)N[C@@H](CC(C)C)C(=O)N[C@@H](CCCCN)C(=O)N[C@@H](CCC(N)=O)C(=O)N[C@@H](CCC(=O)O)C(=O)N[C@@H](CCCNC(=N)N)C(=O)N[C@@H](CCC(N)=O)C(=O)N[C@@H](CCCCN)C(=O)NC(C)(C)C(=O)N[C@@H](CCC(N)=O)C(=O)N[C@@H](CCCNC(=N)N)C(=O)N[C@@H](CCC(N)=O)C(=O)N[C@@H](CCCCN)C(=O)N[C@@H](C)C(=O)N[C@@H](CCC(=O)O)C(=O)N[C@H](C(=O)N[C@@H](CC(N)=O)C(=O)N[C@@H](CCCCN)C(=O)N[C@@H](CCC(N)=O)C(=O)N[C@H](C(=O)N[C@@H](CC(C)C)C(=O)N[C@@H](C)C(=O)N[C@@H](CCC(N)=O)C(=O)N[C@H](C(N)=O)C(C)C)[C@@H](C)CC)[C@@H](C)O)[C@@H](C)CC)[C@@H](C)CC)C(C)C)C(C)C)", "note": "[SEQ ID NO: 108]", "EC50 [nM], 0% HSA": 0.23}, {"binder": "IVLSLDVPIKLK([AEEA-AEEA-γGlu-C18 diacid])QILLKQERQK[Aib]QREKAETNKQILAQV-NH2 (N-terminus assumed; SMILES CC[C@H](C)[C@H](N)C(=O)N[C@H](C(=O)N[C@@H](CC(C)C)C(=O)N[C@@H](CO)C(=O)N[C@@H](CC(C)C)C(=O)N[C@@H](CC(=O)O)C(=O)N[C@H](C(=O)N1CCC[C@H]1C(=O)N[C@H](C(=O)N[C@@H](CCCCN)C(=O)N[C@@H](CC(C)C)C(=O)N[C@@H](CCCCNC(=O)COCCOCCNC(=O)COCCOCCNC(=O)CC[C@H](NC(=O)CCCCCCCCCCCCCCCCC(=O)O)C(=O)O)C(=O)N[C@@H](CCC(N)=O)C(=O)N[C@H](C(=O)N[C@@H](CC(C)C)C(=O)N[C@@H](CC(C)C)C(=O)N[C@@H](CCCCN)C(=O)N[C@@H](CCC(N)=O)C(=O)N[C@@H](CCC(=O)O)C(=O)N[C@@H](CCCNC(=N)N)C(=O)N[C@@H](CCC(N)=O)C(=O)N[C@@H](CCCCN)C(=O)NC(C)(C)C(=O)N[C@@H](CCC(N)=O)C(=O)N[C@@H](CCCNC(=N)N)C(=O)N[C@@H](CCC(=O)O)C(=O)N[C@@H](CCCCN)C(=O)N[C@@H](C)C(=O)N[C@@H](CCC(=O)O)C(=O)N[C@H](C(=O)N[C@@H](CC(N)=O)C(=O)N[C@@H](CCCCN)C(=O)N[C@@H](CCC(N)=O)C(=O)N[C@H](C(=O)N[C@@H](CC(C)C)C(=O)N[C@@H](C)C(=O)N[C@@H](CCC(N)=O)C(=O)N[C@H](C(N)=O)C(C)C)[C@@H](C)CC)[C@@H](C)O)[C@@H](C)CC)[C@@H](C)CC)C(C)C)C(C)C)", "note": "[SEQ ID NO: 109]", "EC50 [nM], 0% HSA": 0.95}, {"binder": "IVLSLDVPIKLK([AEEA-AEEA-γGlu-C18 diacid])QILLKQERQK[Aib]QRQQAETNKQILAQV-NH2 (N-terminus assumed; SMILES CC[C@H](C)[C@H](N)C(=O)N[C@H](C(=O)N[C@@H](CC(C)C)C(=O)N[C@@H](CO)C(=O)N[C@@H](CC(C)C)C(=O)N[C@@H](CC(=O)O)C(=O)N[C@H](C(=O)N1CCC[C@H]1C(=O)N[C@H](C(=O)N[C@@H](CCCCN)C(=O)N[C@@H](CC(C)C)C(=O)N[C@@H](CCCCNC(=O)COCCOCCNC(=O)COCCOCCNC(=O)CC[C@H](NC(=O)CCCCCCCCCCCCCCCCC(=O)O)C(=O)O)C(=O)N[C@@H](CCC(N)=O)C(=O)N[C@H](C(=O)N[C@@H](CC(C)C)C(=O)N[C@@H](CC(C)C)C(=O)N[C@@H](CCCCN)C(=O)N[C@@H](CCC(N)=O)C(=O)N[C@@H](CCC(=O)O)C(=O)N[C@@H](CCCNC(=N)N)C(=O)N[C@@H](CCC(N)=O)C(=O)N[C@@H](CCCCN)C(=O)NC(C)(C)C(=O)N[C@@H](CCC(N)=O)C(=O)N[C@@H](CCCNC(=N)N)C(=O)N[C@@H](CCC(N)=O)C(=O)N[C@@H](CCC(N)=O)C(=O)N[C@@H](C)C(=O)N[C@@H](CCC(=O)O)C(=O)N[C@H](C(=O)N[C@@H](CC(N)=O)C(=O)N[C@@H](CCCCN)C(=O)N[C@@H](CCC(N)=O)C(=O)N[C@H](C(=O)N[C@@H](CC(C)C)C(=O)N[C@@H](C)C(=O)N[C@@H](CCC(N)=O)C(=O)N[C@H](C(N)=O)C(C)C)[C@@H](C)CC)[C@@H](C)O)[C@@H](C)CC)[C@@H](C)CC)C(C)C)C(C)C)", "note": "[SEQ ID NO: 110]", "EC50 [nM], 0% HSA": 0.18}, {"binder": "IVLSLDVPIKLK([AEEA-AEEA-γGlu-C18 diacid])QILLKQERQKKQREKAETNKQILAQV-NH2 (N-terminus assumed; SMILES CC[C@H](C)[C@H](N)C(=O)N[C@H](C(=O)N[C@@H](CC(C)C)C(=O)N[C@@H](CO)C(=O)N[C@@H](CC(C)C)C(=O)N[C@@H](CC(=O)O)C(=O)N[C@H](C(=O)N1CCC[C@H]1C(=O)N[C@H](C(=O)N[C@@H](CCCCN)C(=O)N[C@@H](CC(C)C)C(=O)N[C@@H](CCCCNC(=O)COCCOCCNC(=O)COCCOCCNC(=O)CC[C@H](NC(=O)CCCCCCCCCCCCCCCCC(=O)O)C(=O)O)C(=O)N[C@@H](CCC(N)=O)C(=O)N[C@H](C(=O)N[C@@H](CC(C)C)C(=O)N[C@@H](CC(C)C)C(=O)N[C@@H](CCCCN)C(=O)N[C@@H](CCC(N)=O)C(=O)N[C@@H](CCC(=O)O)C(=O)N[C@@H](CCCNC(=N)N)C(=O)N[C@@H](CCC(N)=O)C(=O)N[C@@H](CCCCN)C(=O)N[C@@H](CCCCN)C(=O)N[C@@H](CCC(N)=O)C(=O)N[C@@H](CCCNC(=N)N)C(=O)N[C@@H](CCC(=O)O)C(=O)N[C@@H](CCCCN)C(=O)N[C@@H](C)C(=O)N[C@@H](CCC(=O)O)C(=O)N[C@H](C(=O)N[C@@H](CC(N)=O)C(=O)N[C@@H](CCCCN)C(=O)N[C@@H](CCC(N)=O)C(=O)N[C@H](C(=O)N[C@@H](CC(C)C)C(=O)N[C@@H](C)C(=O)N[C@@H](CCC(N)=O)C(=O)N[C@H](C(N)=O)C(C)C)[C@@H](C)CC)[C@@H](C)O)[C@@H](C)CC)[C@@H](C)CC)C(C)C)C(C)C)", "note": "[SEQ ID NO: 112]", "EC50 [nM], 0% HSA": 0.66, "EC50 [nM], 0.1% HSA": 68.9}, {"binder": "FTLSLDVPTKIK([γGlu-Palmitoyl])QKLLKQEKQKKQRQKAKTAAQILAQV-NH2 (N-terminus assumed; SMILES CCCCCCCCCCCCCCCC(=O)N[C@@H](CCC(=O)NCCCC[C@H](NC(=O)[C@@H](NC(=O)[C@H](CCCCN)NC(=O)[C@@H](NC(=O)[C@@H]1CCCN1C(=O)[C@@H](NC(=O)[C@H](CC(=O)O)NC(=O)[C@H](CC(C)C)NC(=O)[C@H](CO)NC(=O)[C@H](CC(C)C)NC(=O)[C@@H](NC(=O)[C@@H](N)Cc1ccccc1)[C@@H](C)O)C(C)C)[C@@H](C)O)[C@@H](C)CC)C(=O)N[C@@H](CCC(N)=O)C(=O)N[C@@H](CCCCN)C(=O)N[C@@H](CC(C)C)C(=O)N[C@@H](CC(C)C)C(=O)N[C@@H](CCCCN)C(=O)N[C@@H](CCC(N)=O)C(=O)N[C@@H](CCC(=O)O)C(=O)N[C@@H](CCCCN)C(=O)N[C@@H](CCC(N)=O)C(=O)N[C@@H](CCCCN)C(=O)N[C@@H](CCCCN)C(=O)N[C@@H](CCC(N)=O)C(=O)N[C@@H](CCCNC(=N)N)C(=O)N[C@@H](CCC(N)=O)C(=O)N[C@@H](CCCCN)C(=O)N[C@@H](C)C(=O)N[C@@H](CCCCN)C(=O)N[C@H](C(=O)N[C@@H](C)C(=O)N[C@@H](C)C(=O)N[C@@H](CCC(N)=O)C(=O)N[C@H](C(=O)N[C@@H](CC(C)C)C(=O)N[C@@H](C)C(=O)N[C@@H](CCC(N)=O)C(=O)N[C@H](C(N)=O)C(C)C)[C@@H](C)CC)[C@@H](C)O)C(=O)O)", "note": "[SEQ ID NO: 8]", "EC50 [nM], 0% HSA": 0.2}, {"binder": "IVLSLDVPIKLK([AEEA-AEEA-γGlu-C18 diacid])QILLKQERQKKQRQQAETNKQILAQV-NH2", "note": "[SEQ ID NO: 113]", "EC50 [nM], 0% HSA": 0.1, "EC50 [nM], 0.1% HSA": 11.9}, {"binder": "IVLSLDVPIKLK([AEEA-AEEA-γGlu-C18 diacid])QILLEQARQK[Aib]QRAQAETNKRILERV-NH2", "note": "[SEQ ID NO: 114]", "EC50 [nM], 0% HSA": 0.16, "EC50 [nM], 0.1% HSA": 12.4}, {"binder": "IVLSLDVPIKLK([AEEA-AEEA-γGlu-C18 diacid])QILLKQERQK[Aib]QREQAEKNKQILERV-NH2 (N-terminus assumed; SMILES CC[C@H](C)[C@H](N)C(=O)N[C@H](C(=O)N[C@@H](CC(C)C)C(=O)N[C@@H](CO)C(=O)N[C@@H](CC(C)C)C(=O)N[C@@H](CC(=O)O)C(=O)N[C@H](C(=O)N1CCC[C@H]1C(=O)N[C@H](C(=O)N[C@@H](CCCCN)C(=O)N[C@@H](CC(C)C)C(=O)N[C@@H](CCCCNC(=O)COCCOCCNC(=O)COCCOCCNC(=O)CC[C@H](NC(=O)CCCCCCCCCCCCCCCCC(=O)O)C(=O)O)C(=O)N[C@@H](CCC(N)=O)C(=O)N[C@H](C(=O)N[C@@H](CC(C)C)C(=O)N[C@@H](CC(C)C)C(=O)N[C@@H](CCCCN)C(=O)N[C@@H](CCC(N)=O)C(=O)N[C@@H](CCC(=O)O)C(=O)N[C@@H](CCCNC(=N)N)C(=O)N[C@@H](CCC(N)=O)C(=O)N[C@@H](CCCCN)C(=O)NC(C)(C)C(=O)N[C@@H](CCC(N)=O)C(=O)N[C@@H](CCCNC(=N)N)C(=O)N[C@@H](CCC(=O)O)C(=O)N[C@@H](CCC(N)=O)C(=O)N[C@@H](C)C(=O)N[C@@H](CCC(=O)O)C(=O)N[C@@H](CCCCN)C(=O)N[C@@H](CC(N)=O)C(=O)N[C@@H](CCCCN)C(=O)N[C@@H](CCC(N)=O)C(=O)N[C@H](C(=O)N[C@@H](CC(C)C)C(=O)N[C@@H](CCC(=O)O)C(=O)N[C@@H](CCCNC(=N)N)C(=O)N[C@H](C(N)=O)C(C)C)[C@@H](C)CC)[C@@H](C)CC)[C@@H](C)CC)C(C)C)C(C)C)", "note": "[SEQ ID NO: 115]", "EC50 [nM], 0% HSA": 2.77}]}]}
